# Data published in article doi:10.1101/2025.08.11.669663 (bioRxiv, 2025).
# B1: catalase (CAT) (natural protein, human (endogenous in HeLa), UniProt P04040 1-527, looked up)
# chain: MADSRDPASDQMQHWKEQRAAQKADVLTTGAGNPVGDKLNVITVGPRGPLLVQDVVFTDEMAHFDRERIPERVVHAKGAGAFGYFEVTHDITKYSKAKVFEHIGKKTPIAVRFSTVAGESGSADTVRDPRGFAVKFYTEDGNWDLVGNNTPIFFIRDPILFPSFIHSQKRNPQTHLKDPDMVWDFWSLRPESLHQVSFLFSDRGIPDGHRHMNGYGSHTFKLVNANGEAVYCKFHYKTDQGIKNLSVEDAARLSQEDPDYGIRDLFNAIATGKYPSWTFYIQVMTFNQAETFPFNPFDLTKVWPHKDYPLIPVGKLVLNRNPVNYFAEVEQIAFDPSNMPPGIEASPDKMLQGRLFAYPDTHRHRLGPNYLHIPVNCPYRARVANYQRDGPMCMQDNQGGAPNYYPNSFGAPEQQPSALEHSIQYSGEVRRFNTANDDNVTQVRAFYVNVLNEEQRKRLCENIAGHLKDAQIFIQKKAVKNFTEVHPDYGSHIQALLDKYNAEKPKNAIHTFVQSGSHLAAREKANL
# What was measured:
# [1] = target: B1; assay: co-IP
# [2] = target: Cu/Zn superoxide dismutase (SOD1) (human (endogenous in HeLa), UniProt P00441 1-154); assay: co-IP
# Cu/Zn superoxide dismutase (SOD1), sequence (P00441 whole entry): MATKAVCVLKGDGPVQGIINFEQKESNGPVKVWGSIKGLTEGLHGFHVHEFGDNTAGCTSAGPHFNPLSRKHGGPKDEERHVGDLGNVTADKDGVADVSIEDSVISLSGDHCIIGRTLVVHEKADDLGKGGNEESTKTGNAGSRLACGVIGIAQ
Binder,"co-precipitated amount after H2O2 treatment, percent of that without H2O2 [1]","co-precipitated amount after H2O2 treatment, percent of control [2]",also measured
"peroxiredoxin 2 (PRDX2) (natural protein, human (endogenous in HeLa), UniProt P32119 1-198, looked up) MASGNARIGKPAPDFKATAVVDGAFKEVKLSDYKGKYVVLFFYPLDFTFVCPTEIIAFSNRAEDFRKLGCEVLGVSVDSQFTHLAWINTPRKEGGLGPLNIPLLADVTRRLSEDYGVLKTDEGIAYRGLFIIDGKGVLRQITVNDLPVGRSVDEALRLVQAFQYTDEHGEVCPAGWKPGSDTIKPNVDDSKEYFSKHN",,,"co-precipitated amount after H2O2 treatment, percent of control [1]: 139%"
"POLD1 (a DNA polymerase subunit) (natural protein, human (endogenous in HeLa), UniProt P28340 1-1107, looked up) MDGKRRPGPGPGVPPKRARGGLWDDDDAPRPSQFEEDLALMEEMEAEHRLQEQEEEELQSVLEGVADGQVPPSAIDPRWLRPTPPALDPQTEPLIFQQLEIDHYVGPAQPVPGGPPPSRGSVPVLRAFGVTDEGFSVCCHIHGFAPYFYTPAPPGFGPEHMGDLQRELNLAISRDSRGGRELTGPAVLAVELCSRESMFGYHGHGPSPFLRITVALPRLVAPARRLLEQGIRVAGLGTPSFAPYEANVDFEIRFMVDTDIVGCNWLELPAGKYALRLKEKATQCQLEADVLWSDVVSHPPEGPWQRIAPLRVLSFDIECAGRKGIFPEPERDPVIQICSLGLRWGEPEPFLRLALTLRPCAPILGAKVQSYEKEEDLLQAWSTFIRIMDPDVITGYNIQNFDLPYLISRAQTLKVQTFPFLGRVAGLCSNIRDSSFQSKQTGRRDTKVVSMVGRVQMDMLQVLLREYKLRSYTLNAVSFHFLGEQKEDVQHSIITDLQNGNDQTRRRLAVYCLKDAYLPLRLLERLMVLVNAVEMARVTGVPLSYLLSRGQQVKVVSQLLRQAMHEGLLMPVVKSEGGEDYTGATVIEPLKGYYDVPIATLDFSSLYPSIMMAHNLCYTTLLRPGTAQKLGLTEDQFIRTPTGDEFVKTSVRKGLLPQILENLLSARKRAKAELAKETDPLRRQVLDGRQLALKVSANSVYGFTGAQVGKLPCLEISQSVTGFGRQMIEKTKQLVESKYTVENGYSTSAKVVYGDTDSVMCRFGVSSVAEAMALGREAADWVSGHFPSPIRLEFEKVYFPYLLISKKRYAGLLFSSRPDAHDRMDCKGLEAVRRDNCPLVANLVTASLRRLLIDRDPEGAVAHAQDVISDLLCNRIDISQLVITKELTRAASDYAGKQAHVELAERMRKRDPGSAPSLGDRVPYVIISAAKGVAAYMKSEDPLFVLEHSLPIDTQYYLEQQLAKPLLRIFEPILGEGRAEAVLLRGDHTRCKTVLTGKVGGLLAFAKRRNCCIGCRTVLSHQGAVCEFCQPRESELYQKEVSHLNALEERFSRLWTQCQRCQGSLHEDVICTSRDCPIFYMRKKVRKDLEDQEQLLRRFGPPGPEAW",190%,,
"PRIM2 (a DNA primase subunit) (natural protein, human (endogenous in HeLa), UniProt P49643 1-509, looked up) MEFSGRKWRKLRLAGDQRNASYPHCLQFYLQPPSENISLIEFENLAIDRVKLLKSVENLGVSYVKGTEQYQSKLESELRKLKFSYRENLEDEYEPRRRDHISHFILRLAYCQSEELRRWFIQQEMDLLRFRFSILPKDKIQDFLKDSQLQFEAISDEEKTLREQEIVASSPSLSGLKLGFESIYKIPFADALDLFRGRKVYLEDGFAYVPLKDIVAIILNEFRAKLSKALALTARSLPAVQSDERLQPLLNHLSHSYTGQDYSTQGNVGKISLDQIDLLSTKSFPPCMRQLHKALRENHHLRHGGRMQYGLFLKGIGLTLEQALQFWKQEFIKGKMDPDKFDKGYSYNIRHSFGKEGKRTDYTPFSCLKIILSNPPSQGDYHGCPFRHSDPELLKQKLQSYKISPGGISQILDLVKGTHYQVACQKYFEMIHNVDDCGFSLNHPNQFFCESQRILNGGKDIKKEPIQPETPQPKPSVQKTKDASSALASLNSSLEMDMEGLEDYFSEDS",175%,,"co-precipitated amount after H2O2 treatment, percent of that without H2O2 [2]: 130%"
glyceraldehyde-3-phosphate dehydrogenase (GAPDH) (natural protein) not shown,,180%,
B1,,170%,
